# Molecular target: Acanthamoeba castellanii actin (amoeba actin), filaments (Acanthamoeba castellanii)
# Chain of mDelFCΔ20, mDelFC lacking the last 20 residues (Q0QWG9 805-1183, stated change not applied): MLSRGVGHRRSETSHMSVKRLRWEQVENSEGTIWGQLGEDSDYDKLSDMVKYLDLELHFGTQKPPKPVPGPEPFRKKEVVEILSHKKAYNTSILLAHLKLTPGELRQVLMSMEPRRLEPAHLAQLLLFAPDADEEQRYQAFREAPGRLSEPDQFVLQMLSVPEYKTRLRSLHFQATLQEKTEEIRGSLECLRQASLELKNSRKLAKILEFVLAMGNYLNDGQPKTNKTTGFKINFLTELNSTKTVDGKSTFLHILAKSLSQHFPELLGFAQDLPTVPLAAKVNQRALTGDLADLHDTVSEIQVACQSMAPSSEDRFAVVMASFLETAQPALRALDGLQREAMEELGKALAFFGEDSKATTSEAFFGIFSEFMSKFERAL
substance,measurement,value
"mDelFCΔ20, mDelFC lacking the last 20 residues (from UniProt Q0QWG9-2 626-1004) (domain or fragment)",inhibition of barbed-end elongation in seeded elongation assays,7 nM

# Reference: PMC6004577
